{
  "source": "paper PMC4414246",
  "assay_in_all_cases": "fluorescence polarization",
  "key": {"dK50dM51 E19S": {"molecular_target": "dK50dM51 E19S (UniProt P09012 10-89, E19S;del50-51)"}, "dK50dM51": {"molecular_target": "dK50dM51 (UniProt P09012 10-89, del50-51)"}, "dK50dM51 E19F": {"molecular_target": "dK50dM51 E19F (UniProt P09012 10-89, E19F;del50-51)"}, "U1A S46A": {"molecular_target": "U1A S46A (UniProt P09012 10-89, S46A)"}, "U1A N15A": {"molecular_target": "U1A N15A (UniProt P09012 10-89, N15A)"}, "dK50dM51 S48A": {"molecular_target": "dK50dM51 S48A (UniProt P09012 10-89, S48A;del50-51)"}, "U1A E19F:F56A": {"molecular_target": "U1A E19F:F56A (UniProt P09012 10-89, E19F;F56A)"}, "U1A L49A": {"molecular_target": "U1A L49A (UniProt P09012 10-89, L49A)"}, "U1A M51F": {"molecular_target": "U1A M51F (UniProt P09012 10-89, M51F)"}, "U1A E19N": {"molecular_target": "U1A E19N (UniProt P09012 10-89, E19N)"}, "U1A E19S:N15V": {"molecular_target": "U1A E19S:N15V (UniProt P09012 10-89, N15V;E19S)"}, "U1A L49A:N15V": {"molecular_target": "U1A L49A:N15V (UniProt P09012 10-89, N15V;L49A)"}, "U1A E19A:N15V": {"molecular_target": "U1A E19A:N15V (UniProt P09012 10-89, N15V;E19A)"}, "U1A M51A:N15V": {"molecular_target": "U1A M51A:N15V (UniProt P09012 10-89, N15V;M51A)"}, "dK50dM51 E19K": {"molecular_target": "dK50dM51 E19K (UniProt P09012 10-89, E19K;del50-51)"}, "U1A L49A:E19A": {"molecular_target": "U1A L49A:E19A (UniProt P09012 10-89, E19A;L49A)"}, "U1A K50A": {"molecular_target": "U1A K50A (UniProt P09012 10-89, K50A)"}, "U1A L49A:F56A": {"molecular_target": "U1A L49A:F56A (UniProt P09012 10-89, L49A;F56A)"}, "U1A M51K": {"molecular_target": "U1A M51K (UniProt P09012 10-89, M51K)"}, "U1A L49F": {"molecular_target": "U1A L49F (UniProt P09012 10-89, L49F)"}, "U1A E19F": {"molecular_target": "U1A E19F (UniProt P09012 10-89, E19F)"}, "U1A E19S": {"molecular_target": "U1A E19S (UniProt P09012 10-89, E19S)"}, "U1A M51A:E19A": {"molecular_target": "U1A M51A:E19A (UniProt P09012 10-89, E19A;M51A)"}, "U1A M51A:Y13Q": {"molecular_target": "U1A M51A:Y13Q (UniProt P09012 10-89, Y13Q;M51A)"}},
  "data": [
    {"binder": "GGCAGAUCUGAGCCUGGGAGCUCUCUGCC (structured_RNA)", "note": "[TAR RNA]", "values": [
      {"measurement": "Kd", "setting": "dK50dM51 E19S", "result": "7 ± 1.9", "unit": "µM"},
      {"measurement": "Kd", "setting": "dK50dM51", "result": "15.9 ± 2.3", "unit": "µM"},
      {"measurement": "Kd", "setting": "dK50dM51 E19F", "result": "12.6 ± 1.8", "unit": "µM"},
      {"measurement": "Kd", "setting": "U1A S46A", "result": "15.1 ± 2.6", "unit": "µM"},
      {"measurement": "Kd", "setting": "U1A N15A", "result": "11.7 ± 0.9", "unit": "µM"},
      {"measurement": "Kd", "setting": "dK50dM51 S48A", "result": "33.9 ± 15.9", "unit": "µM"},
      {"measurement": "Kd", "setting": "U1A E19F:F56A", "result": "20.9 ± 3.3", "unit": "µM"},
      {"measurement": "Kd", "setting": "U1A L49A", "result": "5.2 ± 0.5", "unit": "µM"},
      {"measurement": "Kd", "setting": "U1A M51F", "result": "16.4 ± 2.3", "unit": "µM"},
      {"measurement": "Kd", "setting": "U1A E19N", "result": "12 ± 0.9", "unit": "µM"},
      {"measurement": "Kd", "setting": "U1A E19S:N15V", "result": "11.3 ± 0.8", "unit": "µM"},
      {"measurement": "Kd", "setting": "U1A L49A:N15V", "result": "39.2 ± 9.6", "unit": "µM"},
      {"measurement": "Kd", "setting": "U1A E19A:N15V", "result": "14.2 ± 1.4", "unit": "µM"},
      {"measurement": "Kd", "setting": "U1A M51A:N15V", "result": "46 ± 13.4", "unit": "µM"},
      {"measurement": "Kd", "setting": "dK50dM51 E19K", "result": "6.3 ± 1", "unit": "µM"},
      {"measurement": "Kd", "setting": "U1A L49A:E19A", "result": "6.9 ± 0.8", "unit": "µM"},
      {"measurement": "Kd", "setting": "U1A K50A", "result": "39.6 ± 12.2", "unit": "µM"},
      {"measurement": "Kd", "setting": "U1A L49A:F56A", "result": "123 ± 38.7", "unit": "µM"},
      {"measurement": "Kd", "setting": "U1A M51K", "result": "7.7 ± 0.5", "unit": "µM"},
      {"measurement": "Kd", "setting": "U1A L49F", "result": "24.1 ± 4.3", "unit": "µM"},
      {"measurement": "Kd", "setting": "U1A E19F", "result": "6.2 ± 0.8", "unit": "µM"},
      {"measurement": "Kd", "setting": "U1A E19S", "result": "4.1 ± 0.3", "unit": "µM"},
      {"measurement": "Kd", "setting": "U1A M51A:E19A", "result": "14.9 ± 2.5", "unit": "µM"},
      {"measurement": "Kd", "setting": "U1A M51A:Y13Q", "result": "210 ± 84.3", "unit": "µM"}
    ]}
  ]
}
